# Test results: publication PMC9352680, “A comprehensive thermodynamic model for RNA binding by the Saccharomyces cerevisiae Pumilio protein PUF4”
# T1: PUF4 RNA-binding domain (Saccharomyces cerevisiae, UniProt P25339 537-888)
# T1 sequence: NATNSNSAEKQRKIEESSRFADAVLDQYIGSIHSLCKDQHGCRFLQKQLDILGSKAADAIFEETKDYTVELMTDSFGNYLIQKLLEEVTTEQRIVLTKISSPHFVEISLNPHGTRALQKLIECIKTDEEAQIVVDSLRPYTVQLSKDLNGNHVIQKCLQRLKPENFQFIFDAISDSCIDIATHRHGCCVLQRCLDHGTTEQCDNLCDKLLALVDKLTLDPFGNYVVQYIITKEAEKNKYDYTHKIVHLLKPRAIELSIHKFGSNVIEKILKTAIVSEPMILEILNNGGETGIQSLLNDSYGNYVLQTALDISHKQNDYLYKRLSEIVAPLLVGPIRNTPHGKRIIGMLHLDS
# Biological target: T1, PUF4 RNA-binding domain
# Assay: Mg; RNA-MaP; 20 mM Na-HEPES pH 7.4, 30 mM KOAc, 0.75 mM MgCl2, 0.1% Tween-20, 5% glycerol, 0.1 mg/mL BSA, 2 mM DTT; 25 C; 0.0125-409.6 nM protein
# Settings: tags: N-His6-TEV cleaved; C-SNAP kept, Cy3B-labelled; label: tethered on chip by stalled RNA polymerase
row,Binder,Kd
1,Ic_S4_P4E.1_K4.1_C4.1_H4.1_A4.1_[T5G]_[A6C]_[T7G]_F4.1_[T8G]_[A9C]_T4.1 (ssRNA) RNA: UUUGACAACUGAUCGUUCUUUCUUGUAGCGGCUUCUUUCUCGAUCAGUUGUCUUU,> 2300 nM
2,Ic_S4_P4E.1_K4.1_C4.1_H4.1_A4.1_[T5G]_[A6C]_[T7C]_F4.1_[T8C]_[A9G]_T4.1 (ssRNA) RNA: UUUGACAACUGAUCGUUCUUUCUUGUAGCCCGUUCUUUCUCGAUCAGUUGUCUUU,1440 nM
3,Ic_S4_P4E.1_K4.1_C4.1_H4.1_A4.1_[T5G]_[A6C]_[T7C]_F4.1_[T8A]_[A9T]_T4.1 (ssRNA) RNA: UUUGACAACUGAUCGUUCUUUCUUGUAGCCAUUUCUUUCUCGAUCAGUUGUCUUU,428 nM
4,Ic_S4_P4E.1_K4.1_C4.1_H4.1_A4.1_[T5G]_[A6C]_[T7G]_F4.1_[T8C]_[A9C]_T4.1 (ssRNA) RNA: UUUGACAACUGAUCGUUCUUUCUUGUAGCGCCUUCUUUCUCGAUCAGUUGUCUUU,1050 nM
5,Ic_S4_P4E.1_K4.1_C4.1_H4.1_A4.1_[T5G]_[A6T]_[T7G]_F4.1_[T8C]_[A9T]_T4.1 (ssRNA) RNA: UUUGACAACUGAUCGUUCUUUCUUGUAGUGCUUUCUUUCUCGAUCAGUUGUCUUU,467 nM
6,Ic_S4_P4E.1_K4.1_C4.1_H4.1_A4.1_[T5G]_[A6C]_F4.1_[T8G]_[A9T]_T4.1 (ssRNA) RNA: UUUGACAACUGAUCGUUCUUUCUUGUAGCUGUUUCUUUCUCGAUCAGUUGUCUUU,117 nM
7,Ic_S4_P4E.1_K4.1_C4.1_H4.1_A4.1_[T5G]_[A6C]_[T7C]_F4.1_[T8C]_[A9C]_T4.1 (ssRNA) RNA: UUUGACAACUGAUCGUUCUUUCUUGUAGCCCCUUCUUUCUCGAUCAGUUGUCUUU,786 nM
8,Ic_S4_P4E.1_K4.1_C4.1_H4.1_A4.1_[T5G]_[A6C]_[T7A]_F4.1_[A9G]_T4.1 (ssRNA) RNA: UUUGACAACUGAUCGUUCUUUCUUGUAGCAUGUUCUUUCUCGAUCAGUUGUCUUU,51.3 nM
9,Ic_S4_P4E.1_K4.1_C4.1_H4.1_A4.1_[T5G]_[A6C]_F4.1_[T8C]_T4.1 (ssRNA) RNA: UUUGACAACUGAUCGUUCUUUCUUGUAGCUCAUUCUUUCUCGAUCAGUUGUCUUU,365 nM
10,Ic_S4_P4E.1_K4.1_C4.1_H4.1_A4.1_[T5G]_[A6C]_F4.1_[A9T]_T4.1 (ssRNA) RNA: UUUGACAACUGAUCGUUCUUUCUUGUAGCUUUUUCUUUCUCGAUCAGUUGUCUUU,40.5 nM
11,Ic_S4_P4E.1_K4.1_C4.1_H4.1_A4.1_[T5G]_[A6C]_[T7A]_F4.1_[T8G]_[A9T]_T4.1 (ssRNA) RNA: UUUGACAACUGAUCGUUCUUUCUUGUAGCAGUUUCUUUCUCGAUCAGUUGUCUUU,495 nM
12,Ic_S4_P4E.1_K4.1_C4.1_H4.1_A4.1_[T5G]_[A6C]_[T7A]_F4.1_[T8C]_T4.1 (ssRNA) RNA: UUUGACAACUGAUCGUUCUUUCUUGUAGCACAUUCUUUCUCGAUCAGUUGUCUUU,772 nM
13,Ic_S4_P4E.1_K4.1_C4.1_H4.1_A4.1_[T5G]_[A6C]_[T7A]_F4.1_[T8A]_[A9C]_T4.1 (ssRNA) RNA: UUUGACAACUGAUCGUUCUUUCUUGUAGCAACUUCUUUCUCGAUCAGUUGUCUUU,1350 nM
14,Ic_S4_P4E.1_K4.1_C4.1_H4.1_A4.1_[T5G]_[A6T]_[T7G]_F4.1_T4.1 (ssRNA) RNA: UUUGACAACUGAUCGUUCUUUCUUGUAGUGUAUUCUUUCUCGAUCAGUUGUCUUU,12.1 nM
15,Ic_S4_P4E.1_K4.1_C4.1_H4.1_A4.1_[T5G]_[A6C]_[T7C]_F4.1_[A9C]_T4.1 (ssRNA) RNA: UUUGACAACUGAUCGUUCUUUCUUGUAGCCUCUUCUUUCUCGAUCAGUUGUCUUU,747 nM
16,Ic_S4_P4E.1_K4.1_C4.1_H4.1_A4.1_[T5G]_[A6T]_[T7G]_F4.1_[A9C]_T4.1 (ssRNA) RNA: UUUGACAACUGAUCGUUCUUUCUUGUAGUGUCUUCUUUCUCGAUCAGUUGUCUUU,238 nM
17,Ic_S4_P4E.1_K4.1_C4.1_H4.1_A4.1_[T5G]_[A6C]_[T7C]_F4.1_[T8C]_T4.1 (ssRNA) RNA: UUUGACAACUGAUCGUUCUUUCUUGUAGCCCAUUCUUUCUCGAUCAGUUGUCUUU,997 nM
18,Ic_S4_P4E.1_K4.1_C4.1_H4.1_A4.1_[T5G]_[A6T]_[T7G]_F4.1_[T8C]_[A9C]_T4.1 (ssRNA) RNA: UUUGACAACUGAUCGUUCUUUCUUGUAGUGCCUUCUUUCUCGAUCAGUUGUCUUU,1240 nM
19,Ic_S4_P4E.1_K4.1_C4.1_H4.1_A4.1_[T5G]_[A6C]_[T7C]_F4.1_[T8A]_T4.1 (ssRNA) RNA: UUUGACAACUGAUCGUUCUUUCUUGUAGCCAAUUCUUUCUCGAUCAGUUGUCUUU,780 nM
20,Ic_S4_P4E.1_K4.1_C4.1_H4.1_A4.1_[T5G]_[A6C]_[T7A]_F4.1_[A9C]_T4.1 (ssRNA) RNA: UUUGACAACUGAUCGUUCUUUCUUGUAGCAUCUUCUUUCUCGAUCAGUUGUCUUU,61.1 nM
21,UCUCUUUGUUUAUUGUCUCUU (ssRNA) [Ib_S1_P4E.1_K4.1_C4.1_H4.1_[A4T]_A4.1_F4.1_[A9G]_T4.1],163 nM
22,UCUCUUUGUUUAUUCUCUCUU (ssRNA) [Ib_S1_P4E.1_K4.1_C4.1_H4.1_[A4T]_A4.1_F4.1_[A9C]_T4.1],804 nM
23,Ic_S4_P3E.1_K3.1_C3.1_H3.1_A3.1_[T5A]_[A6T]_F3.1_[T7A]_[A8C]_T3.1 (ssRNA) RNA: UUUGACAACUGAUCGUUCUUUCUUGUAAUACUUCUUUCUCGAUCAGUUGUCUUU,226 nM

row,Binder,Kd
1,Ic_S4_P3E.1_K3.1_C3.1_H3.1_A3.1_[A6G]_F3.1_[T7C]_[A8T]_T3.1 (ssRNA) RNA: UUUGACAACUGAUCGUUCUUUCUUGUAUGCUUUCUUUCUCGAUCAGUUGUCUUU,54.5 nM
2,Ic_S4_P3E.1_K3.1_C3.1_H3.1_A3.1_[A6G]_F3.1_T3.1 (ssRNA) RNA: UUUGACAACUGAUCGUUCUUUCUUGUAUGUAUUCUUUCUCGAUCAGUUGUCUUU,27.4 nM
3,Ic_S4_P3E.1_K3.1_C3.1_H3.1_A3.1_[A6C]_F3.1_[T7G]_[A8G]_T3.1 (ssRNA) RNA: UUUGACAACUGAUCGUUCUUUCUUGUAUCGGUUCUUUCUCGAUCAGUUGUCUUU,1930 nM
4,Ic_S4_P3E.1_K3.1_C3.1_H3.1_A3.1_[A6T]_F3.1_[A8G]_T3.1 (ssRNA) RNA: UUUGACAACUGAUCGUUCUUUCUUGUAUUUGUUCUUUCUCGAUCAGUUGUCUUU,46.7 nM
5,If_S4_P3E.1_K3.1_C3.1_H3.1_A3.1_F3.1_T3.1 (ssRNA) RNA: UUUGACAACUGAUCGUUCUUUCUUGUAUAUAUUCUUUCUCGAUCAGUUGUCUUU,1.99 nM
6,Ic_S4_P3E.1_K3.1_C3.1_H3.1_A3.1_[T5A]_[A6T]_F3.1_[T7A]_T3.1 (ssRNA) RNA: UUUGACAACUGAUCGUUCUUUCUUGUAAUAAUUCUUUCUCGAUCAGUUGUCUUU,126 nM
7,Ic_S4_P3E.1_K3.1_C3.1_H3.1_A3.1_[A6C]_F3.1_[T7C]_[A8G]_T3.1 (ssRNA) RNA: UUUGACAACUGAUCGUUCUUUCUUGUAUCCGUUCUUUCUCGAUCAGUUGUCUUU,392 nM
8,Ic_S4_P3E.1_K3.1_C3.1_H3.1_A3.1_[T5A]_[A6T]_F3.1_T3.1 (ssRNA) RNA: UUUGACAACUGAUCGUUCUUUCUUGUAAUUAUUCUUUCUCGAUCAGUUGUCUUU,65.6 nM
9,Ic_S4_P3E.1_K3.1_C3.1_H3.1_A3.1_[A6C]_F3.1_[T7G]_[A8T]_T3.1 (ssRNA) RNA: UUUGACAACUGAUCGUUCUUUCUUGUAUCGUUUCUUUCUCGAUCAGUUGUCUUU,178 nM
10,Ic_S4_P3E.1_K3.1_C3.1_H3.1_A3.1_[A6T]_F3.1_[T7A]_[A8C]_T3.1 (ssRNA) RNA: UUUGACAACUGAUCGUUCUUUCUUGUAUUACUUCUUUCUCGAUCAGUUGUCUUU,123 nM
11,Ic_S4_P3E.1_K3.1_C3.1_H3.1_A3.1_[A6C]_F3.1_[A8G]_T3.1 (ssRNA) RNA: UUUGACAACUGAUCGUUCUUUCUUGUAUCUGUUCUUUCUCGAUCAGUUGUCUUU,23.4 nM
12,Ic_S4_P3E.1_K3.1_C3.1_H3.1_A3.1_[A6T]_F3.1_T3.1 (ssRNA) RNA: UUUGACAACUGAUCGUUCUUUCUUGUAUUUAUUCUUUCUCGAUCAGUUGUCUUU,15.3 nM
13,Ic_S4_P3E.1_K3.1_C3.1_H3.1_A3.1_F3.1_[A8T]_T3.1 (ssRNA) RNA: UUUGACAACUGAUCGUUCUUUCUUGUAUAUUUUCUUUCUCGAUCAGUUGUCUUU,3.03 nM
14,Ic_S4_P3E.1_K3.1_C3.1_H3.1_A3.1_[T5A]_F3.1_[A8T]_T3.1 (ssRNA) RNA: UUUGACAACUGAUCGUUCUUUCUUGUAAAUUUUCUUUCUCGAUCAGUUGUCUUU,19.3 nM
15,Ic_S4_P3E.1_K3.1_C3.1_H3.1_A3.1_[A6C]_F3.1_[T7C]_[A8T]_T3.1 (ssRNA) RNA: UUUGACAACUGAUCGUUCUUUCUUGUAUCCUUUCUUUCUCGAUCAGUUGUCUUU,27.6 nM
16,Ic_S4_P3E.1_K3.1_C3.1_H3.1_A3.1_[A6T]_F3.1_[T7A]_[A8G]_T3.1 (ssRNA) RNA: UUUGACAACUGAUCGUUCUUUCUUGUAUUAGUUCUUUCUCGAUCAGUUGUCUUU,944 nM
17,Ic_S4_P3E.1_K3.1_C3.1_H3.1_A3.1_[A6T]_F3.1_[T7G]_[A8G]_T3.1 (ssRNA) RNA: UUUGACAACUGAUCGUUCUUUCUUGUAUUGGUUCUUUCUCGAUCAGUUGUCUUU,2130 nM
18,Ic_S4_P3E.1_K3.1_C3.1_H3.1_A3.1_F3.1_[T7G]_[A8T]_T3.1 (ssRNA) RNA: UUUGACAACUGAUCGUUCUUUCUUGUAUAGUUUCUUUCUCGAUCAGUUGUCUUU,23.1 nM
19,Ic_S4_P3E.1_K3.1_C3.1_H3.1_A3.1_[A6C]_F3.1_[T7A]_[A8T]_T3.1 (ssRNA) RNA: UUUGACAACUGAUCGUUCUUUCUUGUAUCAUUUCUUUCUCGAUCAGUUGUCUUU,8.55 nM
20,Ic_S4_P3E.1_K3.1_C3.1_H3.1_A3.1_[T5A]_[A6T]_F3.1_[A8G]_T3.1 (ssRNA) RNA: UUUGACAACUGAUCGUUCUUUCUUGUAAUUGUUCUUUCUCGAUCAGUUGUCUUU,220 nM
21,Ic_S4_P3E.1_K3.1_C3.1_H3.1_A3.1_[A6C]_F3.1_[T7A]_[A8C]_T3.1 (ssRNA) RNA: UUUGACAACUGAUCGUUCUUUCUUGUAUCACUUCUUUCUCGAUCAGUUGUCUUU,80.4 nM
22,UCUCUUUGUGUAUUCUCUCUU (ssRNA) [Ib_S1_P4E.1_K4.1_C4.1_H4.1_[A4G]_A4.1_F4.1_[A9C]_T4.1],40.4 nM
23,UCUCUUUGUCUAUUCUCUCUU (ssRNA) [Ib_S1_P4E.1_K4.1_C4.1_H4.1_[A4C]_A4.1_F4.1_[A9C]_T4.1],1920 nM
